According to patent publication US12723255B2, “Herbicide tolerance genes and methods of use thereof” (priority 2014, dated 2026):
Where “and” joins values, the source holds several entries; their conditions need not be identical. Equal entries are not always repeated.

Legend:
[1] = test system: F1 hybrid maize plants; assay: plant-based assay for heat sensitivity, quizalofop-P tolerance; format: in vivo; details: 2× quizalofop-P, ten days post treatment, 0 no visible injury, 5 dead plants
Method: A plant-based enzyme activity assay for heat sensitivity was used to determine the effect of elevated growth temperatures on the herbicide tolerance of transgenic plants containing the optimized engineered proteins. To test for quizalofop-P tolerance at elevated growth temperatures, F1 hybrid (produced by crossing an R1 homozygous plant expressing one of the MON-HT proteins with inbred maize event MON89034) maize seed was grown in a growth chamber for 10 days at a day temperature of 28° C. and a night temperature of 20° C. with 50% humidity. After 10 days, the plants were moved to acclimate for 3 days at one of three different day and night temperature regimens: (1) both day and night temperatures set at 20° C.; (2) day temperature at 28° C. and night temperature at 20° C.; or (3) day temperature at 38° C. and night temperature at 30° C. At the end of the acclimation period, the plants were generally at V4 growth stage and were sprayed with 2× quizalofop-P. Ten days post treatment the plants were scored for injury on a rating scale of 1 to 5 where ‘0’ is no visible injury observed, ‘1’ is chlorotic speckling, ‘2’ is chlorotic streaking, ‘3’ there are leaf gaps or tears, ‘4’ are plants with stunted growth and/or twisted leaves, and ‘5’ are dead plants or no growth observed. […] (FIG. 4A) or 28° C./20° C. […]

[2] = test system: transgenic maize plants; assay: R1 green house quizalofop-P spray test; format: in vivo; details: R1 maize with CTP; quizalofop-P 1× at V2; eleven days after treatment
From the text: Plant transformation vectors were constructed each comprising a recombinant DNA molecule encoding one of three engineered proteins with the protein-coding sequence optimized for monocot expression, MON-HT51 (SEQ ID NO:3), MON-HT52 (SEQ ID NO:6), and MON-HT55 (SEQ ID NO:13). The vectors were created using different combinations of promoter, leader, intron, and 3′UTR and with and without a CTP operably linked to the protein-coding sequence. Also included in the vectors was a second DNA cassette comprising a cp4-EPSPS coding sequence to be used in transgenic plants for glyphosate tolerance. Immature maize (LH244) embryos were transformed with these vectors using Agrobacterium tumifaciens and standard methods known in the art. Regenerated R0 transgenic plantlets were grown in the green house and sprayed at approximately V2-V4 growth stage with 0.04 or 0.08 lb ai/acre quizalofop-P (AssureTM II, E.I. DuPont), representing 0.5× and 1× rates, respectively. Leaf samples were used to identify transgenic plants with a single copy of the transgenic DNA insert (that is, single event plants). […]
R1 plants expressing MON-HT55 with and without an operably linked CTP were grown in the green house and quizalofop-P herbicide was applied at the V2 growth stage at a rate of 0.08Ib ac/acre (1×). Plants were evaluated for injury eleven days after treatment.

[3] = enzyme activity assay at 23° C. with purified enzyme; format: biochemical
[4] = test system: transgenic soy plants; assay: soy green house tolerance to synthetic auxins; format: in vivo, soybean; details: for Average soy % crop injury for 4 reps, 2,4-D Amine / Average soy % crop injury for 4 reps, MCPA: 2X rate 1680 g ae/ha
[5] = test system: transgenic soybean plants; assay: R0 soybean 2,4-D spray test of 2,4-D optimized variants; format: in vivo
[6] = test system: F1 hybrid maize plants; assay: maize green house tolerance to synthetic auxins; format: in vivo; details: 'A' CTP, Events 1-3 in columns
[7] = percentage of wild-type RdpA, set at 100%
[8] = 2X rate 840 g ae/ha, Events 1-3 in columns, seven days after treatment
[9] = Events 1-3 in columns, seven days after treatment
[10] = Events 1-3 in columns, seven days after treatment, listed as MON-HTI

B1: MON-HT55: engineered oxygenase protein, amino acid sequence SEQ ID NO:11 (protein)
chain: MHAALSPLSQRFERIAVQPLTGVLGAEITGVDLREPLDDSTWNEILDAFHTYQVIYFPGQAITNEQHIAFSRRFGPVDPVPLLKSIEGYPEVQMIRREANESGRVIGENWHTDSTFLDAPPAAVVMYAKEIPPYGGDTLFTSMYTAWETLSPTMQATIEGLNVVHSATRVFGSLYQAQNRRFSNTSVKVMDVDAGDRETVHPLVVTHPETGRKGLYVNQVYCQRIEGMSEKESEPLLSFLFAHATKPEFTCRVRWQEGDVLVWDNLCTQHYAVPDYAGKFRYLTRTTVGGVRPAR
[1]; day/night 20° C./20° C. or 28° C./20° C.
  injury rating: around 2
[1]; day/night 38° C./30° C.
  injury rating: 3
[2]
  injury scores: ≤ 5%

B2: MON-HT1: engineered oxygenase protein, amino acid sequence SEQ ID NO:14 (protein)
chain: MHAALTPLTNKYRFIDVQPLTGVLGAEITGVDLREPLDDSTWNEILDAFHTYQVIYFPGQAITNEQHIAFSRRFGPVDPVPILKSIEGYPEVQMIRREANESSRFIGDDWHTDSTFLDAPPAAVVMRAIEVPEYGGDTGFLSMYSAWETLSPTMQATIEGLNVVHSATKVFGSLYQATNWRFSNTSVKVMDVDAGDRETVHPLVVTHPVTGRRALYCNQVYCQKIQGMTDAESKSLLQFLYEHATKFDFTCRVRWKKDQVLVWDNLCTMHRAVPDYAGKFRYLTRTTVAGDKPSR
[3]
  activity with MCPB as the substrate: no detectable activity
  enzymatic activity with MCPA greater compared to the wild-type RdpA enzyme: roughly 6 fold
[3]; not robust enough to quantify
  activity with fluroxypyr as the substrate: detectable activity
  activity with triclopyr as the substrate: detectable activity
[3]; [7]
  MCPA Km: 21%
  MCPA Vmax: 600%
  Mecoprop Km: 142%
[4]; [8]
  Average soy % crop injury for 4 reps, fluroxypyr: 96.3% and 93.8% and 97.5%
  Average soy % crop injury for 4 reps, triclopyr: 81.3% and 90.0%
[4]; [9]
  Average soy % crop injury for 4 reps, 2,4-D Amine: 4.5% and 6.5% and 5.3%
  Average soy % crop injury for 4 reps, MCPA: 90.0% and 72.5%
[4]; [10]
  Average soy % crop injury for 4 reps, 2,4-D Amine: less than 7%
  Average soy % crop injury for 4 reps, MCPA: 72% and 90%
[4]; 2× rate 840 g ae/ha
  soy crop injury, triclopyr or fluroxypyr, across all three events: 81-97%
[5]; 2,4-D rate 2X (1.5 lb ae/acre), single copy R0 soy, seven days after application
  Events with <20% injury: 12
[5]; 2× application rate, soy
  tolerance to 2,4-D treatment: excellent tolerance
[6]; 4X rate 1680 g ae/ha
  Average maize % crop injury for 4 reps, fluroxypyr: 20.0% and 21.3%
  Average maize % crop injury for 4 reps, triclopyr: 26.3% and 37.5% and 35.0%
[6]; 4X rate 3360 g ae/ha, listed as MON-HTl
  Average maize % crop injury for 4 reps, MCPA: 20%
